B1: farletuzumab (antibody, human IgG1, kappa)
heavy: not shown
light: DIQLTQSPSSLSASVGDRVTITCSVSSSISSNNLHWYQQKPGKAPKPWIYGTSNLASGVPSRFSGSGSGTDYTFTISSLQPEDIATYYCQQWSSYPYMYTFGQGTKVEIKRTVAAPSVFIFPPSDEQLKSGTASVVCLLNNFYPREAKVQWKVDNALQSGNSQESVTEQDSKDSTYSLSSTLTLSKADYEKHKVYACEVTHQGLSSPVTKSFNRGEC
notes: Human IgG1, made in CHO K1 cells; also called mAb2; native farletuzumab
B2: farletuzumab-LALA (antibody, human IgG1, kappa, L234A L235A)
heavy: not shown
light: B1 light
notes: also called mAb1; Fc-silent farletuzumab-LALA
B3: F-LALA-VA-EXA (antibody, human IgG1, kappa, L234A L235A)
heavy: not shown
light: B1 light
modifications: drug-linker LNK4-S on the interchain cysteine thiol, 1 per light chain (LC-1d); drug-linker LNK4-S (Val-Ala-exatecan with polysarcosine) on interchain cysteine thiols, 3 per heavy chain (HC-3d); DAR …
notes: Antibody-drug conjugate
B4: mirvetuximab (antibody, human IgG1, kappa, V domains shown)
VH: QVQLVQSGAEVVKPGASVKISCKASGYTFTGYFMNWVKQSPGQSLEWIGRIHPYDGDTFYNQKFQGKATLTVDKSSNTAHMELLSLTSEDFAVYYCTRYDGSRAMDYWGQGTTVTVSS
VL: DIVLTQSPLSLAVSLGQPAIISCKASQSVSFAGTSLMHWYHQKPGQQPRLLIYRASNLEAGVPDRFSGSGSKTDFTLTISPVEAEDAATYYCQQSREYPYTFGGGTKLEIKR
notes: also called native mirvetuximab
B5: M-SORAV (antibody, human IgG1, kappa, V domains shown)
VH: B4 VH
VL: B4 VL
modifications: sulfo-SPDB-DM4 stochastically conjugated to lysines; average DAR 3.35 for the whole antibody
notes: Antibody-drug conjugate; also called ADC derivative of mirvetuximab; mirvetuximab soravtansine comparator
B6: F-VA-EXA (antibody, human IgG1, kappa)
heavy chain: not shown
light chain: B1 light
modifications: interchain cysteine thiol conjugated to drug-linker LNK4-S, DAR 8; interchain cysteine thiols conjugated to drug-linker LNK4-S (Val-Ala-exatecan, polysarcosine), DAR 8

Each binder was assayed against T1, recombinant human FRα protein (Sino Biological cat #11241-H08H) (human, UniProt P15328 25-233) (assay: SPR Biacore T200, antibody captured, recombinant human FRα as analyte, 1:1 model; the filing attributes it to an increased kd with a similar ka).
T1 construct: Bought recombinant protein; also called human folate receptor alpha; FOLR1
Method: (§1) Surface plasmon resonance (SPR) experiments are performed on a Biacore T200 apparatus, at 25° C. Tested antibody or ADC are captured at low density (300-500 RU) on a CM5 series S sensorchip, beforehand functionalized with a Human Antibody Capture kit (Cytiva cat #BR100839). A functionalized surface/flow cell treated similarly but omitting ligand is used as reference. […] The dissociation phase is measured by injection of running buffer for 900 sec. Between duplicates, surfaces/flow cells are regenerated with 3M MgCl₂ to remove both analyte and ligand, and fresh ligand capture are done using identical conditions. The data analysis is performed using the Biacore Evaluation software after subtraction of reference surface and analyte zero-concentration signals. Data are processed and fit to a 1:1 binding model to determine the binding kinetic rate constants, kₐ (on-rate) and kd (off-rate), and the KD (equilibrium dissociation constant, also referred to as “affinity”). Mean values and standard deviations over replicates are reported.
Surface plasmon resonance (SPR) experiments were performed on a Biacore T200 apparatus, at 25° C. Tested antibody or ADC were captured at low density (300-500 RU) on a CM5 series S sensorchip, beforehand functionalized with a Human Antibody Capture kit (Cytiva cat #BR100839). […] The dissociation phase was measured by injection of running buffer for 900 sec. […]

T1 sequence (P15328 25-233 limits assumed): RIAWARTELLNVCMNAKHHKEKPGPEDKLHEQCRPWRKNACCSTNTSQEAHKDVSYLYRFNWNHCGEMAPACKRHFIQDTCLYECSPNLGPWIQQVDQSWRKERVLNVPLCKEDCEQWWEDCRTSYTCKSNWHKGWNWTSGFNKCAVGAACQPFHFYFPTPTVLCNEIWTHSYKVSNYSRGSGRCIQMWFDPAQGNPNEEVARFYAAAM

Binder | fold change of KD against mirvetuximab and mirvetuximab-based constructs [fold]
B1 | ~10
B2 | ~10

Each binder was assayed against T2, recombinant rat FRα protein (Sino Biological cat #81073-R08H) (rat, UniProt G3V8M6 25-232) (assay: ELISA: plate coated with recombinant rat FRα (2 µg/mL), threefold dilution series of F-LALA-VA-EXA, goat anti-human IgG-HRP, A450; x axis printed as [Recombinant FRa] (M) with log10 values).
T2 construct: Bought; also called rat recombinant FRα protein
Method: (§2) Sandwich ELISA assays were performed using 96-well high-binding ELISA plates (Corning Inc., New York, NY, USA, Cat #3590). Plates were coated using 100 μL/well of recombinant human FRα protein (Sino Biological cat #11241-H08H); recombinant cynomolgus FRα protein (Sino Biological cat #90950-C08H); recombinant rat FRα protein (Sino Biological cat #81073-R08H) or recombinant mouse FRα protein (Sino Biological cat #50573-M08H) in PBS (pH 7.4) at 2 μg/mL and incubated overnight at 4° C. After 2 washes with PBS-T (PBS+0.05% Tween-20), the plates were blocked with 200 μL/well of incubation buffer (PBS-T+0.1% BSA) for 1 h at room temperature. The plates were washed 4 times with PBS-T, and 100 μL of a threefold dilution series of tested compound (antibody or antibody-drug conjugate) was added. Then, the plates were incubated for 2 h at room temperature in the dark. After 5 washes with PBS-T, plates were incubated 1 h at room temperature with 100 μL/well of a goat anti-human IgG (H+L) HRP conjugated antibody (Jackson Immunoresearch cat #109-035-088), previously diluted 1:250000 in incubation buffer. After 5 washes with PBS-T, TMB substrate solution (Thermo-Fisher cat #N301) was added. […] Sigmoidal fittings were performed using GraphPad Prism 9 software.

T2 sequence (G3V8M6 entry or part of it R08H R08H limits assumed): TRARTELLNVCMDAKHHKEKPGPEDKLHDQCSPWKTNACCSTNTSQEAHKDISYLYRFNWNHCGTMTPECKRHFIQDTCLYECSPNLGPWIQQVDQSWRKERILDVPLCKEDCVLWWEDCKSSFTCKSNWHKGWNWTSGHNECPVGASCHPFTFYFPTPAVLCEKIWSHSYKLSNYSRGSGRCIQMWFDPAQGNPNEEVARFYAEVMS

Binder | binding result
B3 | no binding

The binders below were run against T1, recombinant human FRα protein (Sino …) (assay: ELISA: plate coated with recombinant human FRα (2 µg/mL), threefold dilution series of F-LALA-VA-EXA, goat anti-human IgG-HRP, A450; x axis printed as [Recombinant FRa] (M) with log10 values).
Method: (§3) Sandwich ELISA assays are performed using 96-well high-binding ELISA plates (Corning Inc., New York, NY, USA, Cat #3590). Plates are coated using 100 µL/well of recombinant human FRα protein (Sino Biological cat #11241-H08H) in PBS (pH 7.4) at 2 μg/mL and incubated overnight at 4° C. After 2 washes with PBS-T (PBS+0.05% Tween-20), the plates are blocked with 200 μL/well of incubation buffer (PBS-T+0.1% BSA) for 1 h at room temperature. The plates are washed 4 times with PBS-T, and 100 μL of a threefold dilution series of tested compound (antibody or antibody-drug conjugate) is added. Then, the plates are incubated for 2 h at room temperature in the dark. After 5 washes with PBS-T, plates are incubated 1 h at room temperature with 100 μL/well of a goat anti-human IgG (H+L) HRP conjugated antibody (Jackson Immunoresearch cat #109-035-088), previously diluted 1:250000 in incubation buffer. After 5 washes with PBS-T, TMB substrate solution (Thermo-Fisher cat #N301) is added. […] Sigmoidal fittings were performed using GraphPad Prism 9 software.
Sandwich ELISA assays were performed using 96-well high-binding ELISA plates (Corning Inc., New York, NY, USA, Cat #3590). […]

Binder | EC50 (read off the curve) [pM]
B3 | ~100

These binders were tested against T3, recombinant mouse FRα protein (Sino Biological cat #50573-M08H) (mouse, UniProt P35846 25-232) (assay: ELISA: plate coated with recombinant mouse FRα (2 µg/mL), threefold dilution series of F-LALA-VA-EXA, goat anti-human IgG-HRP, A450; x axis printed as [Recombinant FRa] (M) with log10 values).
T3 construct: Bought; also called mouse recombinant FRα protein
Method: as §2

T3 sequence (P35846 25-232 limits assumed, stated change not applied): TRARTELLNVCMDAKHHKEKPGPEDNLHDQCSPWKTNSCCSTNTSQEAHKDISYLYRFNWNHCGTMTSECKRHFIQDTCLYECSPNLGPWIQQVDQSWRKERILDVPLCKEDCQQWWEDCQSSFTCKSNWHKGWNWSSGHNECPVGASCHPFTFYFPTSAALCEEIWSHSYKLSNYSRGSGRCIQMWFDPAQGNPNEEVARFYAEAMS

Binder | binding result
B3 | no binding

What follows are binders tested against T1, recombinant human FRα protein (Sino …) (assay: SPR, Biacore T200, 25 °C: antibody or ADC captured with Human Antibody Capture kit on CM5 chip, recombinant human FRα as analyte (0.5-8 nM), single cycle kinetics, 1:1 model, mean over replicates).
Method: as §1
(§4) Surface plasmon resonance (SPR) experiments were performed on a Biacore T200 apparatus, at 25° C. Tested antibody or ADC were captured at low density (300-500 RU) on a CM5 series S sensorchip, beforehand functionalized with a Human Antibody Capture kit (Cytiva cat #BR100839). A functionalized surface/flow cell treated similarly but omitting ligand was used as reference. […] The dissociation phase was measured by injection of running buffer for 900 sec. Between duplicates, surfaces/flow cells were regenerated with 3M MgCl₂ to remove both analyte and ligand, and fresh ligand capture were done using identical conditions.

Binder | koff [s⁻¹] | kon [M⁻¹ s⁻¹]
B4 | 0.000244 | 1.15e+06
B5 | 0.000327 | 1.26e+06
B1 | 0.0361 | 1.9e+06
B6 | 0.0306 | 1e+06
B2 | 0.0321 | 1.34e+06
B3 | 0.0368 | 1.33e+06

The binders below were run against T4, recombinant cynomolgus FRα protein (Sino Biological cat #90950-C08H) (cynomolgus, UniProt A0A2K5U044 25-234) (assay: ELISA: plate coated with recombinant cynomolgus FRα (2 µg/mL), threefold dilution series of F-LALA-VA-EXA, goat anti-human IgG-HRP, A450; x axis printed as [Recombinant FRa] (M) with log10 values).
T4 construct: Bought; also called cynomolgus recombinant FRα protein
Method: as §2

T4 sequence (A0A2K5U044 entry or part of it C08H C08H): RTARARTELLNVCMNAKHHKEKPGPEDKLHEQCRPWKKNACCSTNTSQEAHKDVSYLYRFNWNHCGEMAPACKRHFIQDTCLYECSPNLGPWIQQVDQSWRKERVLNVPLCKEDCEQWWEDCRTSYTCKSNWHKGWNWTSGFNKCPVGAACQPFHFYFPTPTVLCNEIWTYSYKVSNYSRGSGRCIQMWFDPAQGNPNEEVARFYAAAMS

Binder | EC50 (read off the curve) [pM]
B3 | ~100

What follows are binders tested against T1, recombinant human FRα protein (Sino …) (assay: SPR, Biacore T200, 25 °C: antibody or ADC captured with Human Antibody Capture kit on CM5 chip, recombinant human FRα as analyte (0.5-8 nM), single cycle kinetics, 1:1 model, KD calculated as kd/ka).
Method: as §1, §4

Binder | Kd [pM]
B4 | 211
B5 | 260
B1 | 25100
B6 | 30900
B2 | 25500
B3 | 27800

These binders were tested against T1, recombinant human FRα protein (Sino …) (assay: ELISA: plate coated with recombinant human FRα (2 µg/mL), threefold dilution series of the antibody or ADC, goat anti-human IgG-HRP, normalized A450; x axis printed as [Recombinant FRa] (M) with log10 values).
Method: as §3
Sandwich ELISA assays were performed using 96-well high-binding ELISA plates (Corning Inc., New York, NY, USA, Cat #3590). Plates were coated using 100 μL/well of recombinant human FRα protein (Sino Biological cat #11241-H08H); recombinant cynomolgus FRα protein (Sino Biological cat #90950-C08H); recombinant rat FRα protein (Sino Biological cat #81073-R08H) or recombinant mouse FRα protein (Sino Biological cat #50573-M08H) in PBS (pH 7.4) at 2 μg/mL and incubated overnight at 4° C. After 2 washes with PBS-T (PBS+0.05% Tween-20), the plates were blocked with 200 μL/well of incubation buffer (PBS-T+0.1% BSA) for 1 h at room temperature. The plates were washed 4 times with PBS-T, and 100 μL of a threefold dilution series of tested compound (antibody or antibody-drug conjugate) was added. Then, the plates were incubated for 2 h at room temperature in the dark. After 5 washes with PBS-T, plates were incubated 1 h at room temperature with 100 μL/well of a goat anti-human IgG (H+L) HRP conjugated antibody (Jackson Immunoresearch cat #109-035-088), previously diluted 1:250000 in incubation buffer.

Binder | EC50 (read off the curve) [pM]
B4 | ~200
B5 | ~300
B1 | ~100
B6 | ~100
B2 | ~100
B3 | ~100
